Data published in US20230147852A1 (SORRENTO THERAPEUTICS, published 2023).

Biological target: T1, Recombinant human LAG3-His (Sino Biological; catalogue No. 16498-H08H) (human, UniProt P18627 23-450)
T1 construct: also called human LAG3 His-tag protein; CD223
T1 sequence: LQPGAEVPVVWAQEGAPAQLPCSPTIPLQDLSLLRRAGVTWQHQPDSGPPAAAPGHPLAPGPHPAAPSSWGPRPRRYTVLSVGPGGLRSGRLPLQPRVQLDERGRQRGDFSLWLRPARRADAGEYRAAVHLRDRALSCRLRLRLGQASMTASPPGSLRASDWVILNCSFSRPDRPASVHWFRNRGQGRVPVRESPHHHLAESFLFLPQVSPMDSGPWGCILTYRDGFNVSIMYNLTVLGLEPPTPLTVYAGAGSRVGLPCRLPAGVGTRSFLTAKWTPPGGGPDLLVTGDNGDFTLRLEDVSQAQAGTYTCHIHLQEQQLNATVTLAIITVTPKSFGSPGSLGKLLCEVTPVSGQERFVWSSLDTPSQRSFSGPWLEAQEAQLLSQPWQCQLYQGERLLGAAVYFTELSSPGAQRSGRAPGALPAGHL
Test: ELISA: antibody coated at 5 µg/mL, soluble human LAG3-His titrated (x-axis: Human LAG3, µg/ml), OD at 450nm

B1: 2D12-2E3-N102D (antibody, V domains shown)
VH: EVQLVESGGGLVQPGRSLRLSCVASGDGMSDYDMHWVRQAPGKGLEWVSGIGWNSGTIDYADSVKGRFIISRDNAKNSLYLQMNSLRPEDTALYYCAKEILDYSWMSVYGMDVWGQGTTVTVSS
VL: DIQMTQSPSSLSASVGDRVTITCRASQNIGTYLNWYQQSPGKAPKLLIYGASSLHSGVPSRVSGSGSGTDFTLTINTLQPEDFATYFCQQSYNTPPTFGQGTKVEIK
notes: also called anti-LAG3 antibody 2D12-2E3-N102D
In the case of B1, the “EC50 (read off the curve)” value is reported as roughly 0.04 µg/mL.
